Here are results for three molecules from US20180030151A1 (MOGAM INSTITUTE FOR BIOMEDICAL RESEARCH, published 2018).

B1: clone A52 (antibody, V domains shown)
VH: EVQLVESGGGLVKPGGSLRLSCAASGFTFSSYAMNWVRQAPGKGLEWVSTITTGGSHTYYADSVDGRFTISRDNAKNSLYLQMNSLRAEDTAVYYCARQDGNFLMDYWGQGTLVTVSS
VL: DVVMTQTPLSLPVTLGQPASISCKSSQSLLDIDGKTYLNWLQQRPGQSPKRLIYLVSKLDSGVPDRFTGSGSGTDFTLKISRVEAEDVGVYYCWQGTHFPFTFGQGTKVEIKR
notes: Fab from phage library at selection; human IgG4/kappa IgG as purified
B2: clone A71 (antibody, V domains shown)
VH: EVQLVESGGGLVKPGGSLRLSCAASGFTFSSYAMNWVRQAPGKGLEWVSTITTGGSYTYYADSVHGRFTISRDNAKNSLYLQMNSLRAEDTAVYYCARQDGNFLMDYWGQGTLVTVSS
VL: DVVMTQTPLSLPVTLGQPASISCKSSQSLLDTDGKTYLNWLQQRPGQSPKRLIYLVSKLDSGVPDRFTGSGSGTDFTLKISRVEAEDVGVYYCWQGTHFPFTFGQGTKVEIKR
notes: as for B1
B3: clone A74 (antibody, V domains shown)
VH: EVQLVESGGGLVKPGGSLRLSCAASGFTFSSYAMHWVRQAPGKGLEWVSTITTGGSYTYYADSVQGRFTISRDNAKNSLYLQMNSLRAEDTAVYYCARQDGNFLMDYWGQGTLVTVSS
VL: DVVMTQTPLSLPVTLGQPASISCKSSQSLLDIDGKTYLNWLQQRPGQSPKRLIYLVSKLDSGVPDRFTGSGSGTDFTLKISRVEAEDVGVYYCWQGTHFPFTFGQGTKVEIKR
notes: as for B1

The test has as its target T1, recombinant human TFPI (tissue factor pathway inhibitor) (human, UniProt P10646 29-304).
T1 construct: Biotin-conjugated in the yeast FACS; also called hTFPI; TFPI antigen
Put plainly: ELISA of phage-library Fab supernatants on TFPI-coated plate. Here is the method: Single colonies were collected from the finally amplified library, and then cultured in 1.5 mL of SB/carbenicillin at 37° C. at 220 rpm until an OD600 of about 0.8-1.0 was reached, followed by incubation with 1 mM IPTG at 30° C. at 200 rpm for 12 hours. Next, the cells were centrifuged at 5500 rpm for 5 minutes, and the supernatant was added to a TFPI antigen-coated ELISA plate, incubated at room temperature for 2 hours, and then washed four times with PBST (1×PBS, 0.05% tween 20). Next, a 1:5000 dilution of an HRP/anti-hFab-HRP conjugate (CAT. No. A0293, Sigma) with 1% BSA/1×PBS was added to the cells, after which the cells were incubated at room temperature for 1 hour and washed four times with PBST (1×PBS, 0.05% tween 20). Then, the cells treated with a TMB solution for 5-10 minutes, and a TMB stop solution was added to the cells. Next, the absorbance at a wavelength of 450 nm was measured using the TECAN sunrise, and clones having high O. D values were selected as individual clones.
A general note: In an ELISA, binding on a coated surface is turned into a signal by an enzyme label.
B1: the binding result was “binds”.
Turning to B2, the binding result is “binds”.
The result for B3 reads “binds”.
